Here are results for twelve molecules from patent US20160200813A1 (AbbVie / Abbott, published 2016).

“And” between values parts separate entries of the source, which are not always exact repeats. Equal entries are not always repeated.

In experiment [1] the target is T1, Human LRP-8 (isoform 3) expressed on cells (human, UniProt Q14114 33-963). As to the kind of experiment: cell-based or functional assay.
For experiment [2], the target named is T2, Cynomolgus monkey LRP-8 expressed on HEK293 cells (cynomolgus monkey).
T2 construct: whole, on cells; also called cyno LRP-8; cLRP-8
Put plainly: cell-based ECL-MSD, 10 ug/ml Ab, cyno-LRP-8-HEK293. On the procedure:
(§1) A cell-based ECL-MSD binding assay was used to determine antibody affinity. HEK293 cells overexpressing human, monkey or mouse LRP-8 were added onto MSD 96-well plate (MSD Cat# L15XB-3/L11XB-3) and incubated at 37° C. for one hour. Cells were blocked using 15% FBS (Hyclone, Thermo Scientific Cat# SH300700.03) at RT for 30 minutes with mild agitation. Plates were washed with DPBS three times and Abs or DVD-Ig binding proteins were added to the well. After incubation at RT for one hour, plates were washed with DPBS and goat anti-human or anti-mouse Sulfo TAG (MSD Cat#R32AJ-1) was added. Plates were incubated at RT for one hour, washed with DPBS and immersed in MSD read buffer (MSD Cat#R92TD-2) before reading on a MSD SECTOR Imager 6000. EC50 values were obtained using Xlfit4 software system.

In experiment [3] the target is T1, Human LRP-8 (isoform 3) expressed on …. Put plainly: cell-based ECL-MSD, 10 ug/ml Ab, human_LRP-8_HEK293. On the procedure:
as §1

Experiment [4] has the same target. As to the kind of experiment: cell-based binding assay, hLRP8.
Experiment [5] has as its target T2, Cynomolgus monkey LRP-8 expressed on …. As to the kind of experiment: cell-based binding assay, cynoLRP8.
Experiment [6] has the same target. Put plainly: cell-based binding on CYNO LRP8-HEK293, supernatant 1:5.
Experiment [7] has the same target. As to the kind of experiment: cell-based binding on CYNO LRP8-HEK293, supernatant 1:25.
Experiment [8] has the same target. As to the kind of experiment: cell-based binding on CYNO LRP8-HEK293, supernatant 1:125.
Experiment [9] has as its target T1, Human LRP-8 (isoform 3) expressed on …. Put plainly: cell-based MSD-ECL binding on cells overexpressing human LRP-8 variant 3 (hLRP8 assay). On the procedure: as §1
For experiment [10], the target named is T2, Cynomolgus monkey LRP-8 expressed on …. Put plainly: cell-based MSD-ECL binding on cells overexpressing cyno LRP-8 variant 1 (cynoLRP8 assay). On the procedure:
as §1

T1 sequence (Q14114 other isoform, or with tags, fused parts or gaps limits assumed): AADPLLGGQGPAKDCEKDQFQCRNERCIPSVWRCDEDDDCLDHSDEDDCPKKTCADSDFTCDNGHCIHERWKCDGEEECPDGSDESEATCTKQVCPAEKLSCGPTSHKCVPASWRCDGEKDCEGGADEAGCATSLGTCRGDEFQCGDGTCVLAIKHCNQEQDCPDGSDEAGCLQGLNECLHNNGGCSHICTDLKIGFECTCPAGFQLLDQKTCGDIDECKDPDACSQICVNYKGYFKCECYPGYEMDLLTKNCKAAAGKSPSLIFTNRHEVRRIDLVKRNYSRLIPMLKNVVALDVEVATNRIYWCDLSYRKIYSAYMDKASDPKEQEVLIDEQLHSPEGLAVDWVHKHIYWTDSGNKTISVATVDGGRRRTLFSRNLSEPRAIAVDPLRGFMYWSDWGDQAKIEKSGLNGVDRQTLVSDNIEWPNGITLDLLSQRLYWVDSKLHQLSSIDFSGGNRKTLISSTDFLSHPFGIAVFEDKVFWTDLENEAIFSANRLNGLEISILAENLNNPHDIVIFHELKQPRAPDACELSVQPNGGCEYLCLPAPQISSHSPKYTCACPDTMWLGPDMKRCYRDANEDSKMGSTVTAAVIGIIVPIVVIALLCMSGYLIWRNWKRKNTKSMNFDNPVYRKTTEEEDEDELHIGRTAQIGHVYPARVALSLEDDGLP

B1: anti-LRP-8 antibody ab58216 (mFc) (antibody, V domains shown)
VH: EVHLQQSGPEVVKPGASVKISCKASGYIISGYFLNWVKQSHGKSLEWVGRINPYSGDTFFNQKFKGKATLTVDKSSNTAHMELRSLTSEDSAVFYCAREDIGRFAYWGQGTLVTVSA
VL: DVLMTQTPLSLPVSLGDQASISCRSSQTIVHSNGNTYLEWYLQKPGQSPKLLIYKVSNRFSGVPDRFSGSGSGTDFTLKISRVEAEDLGVYYCFQGSHAPPTFGGGTKLEIK
notes: Mouse Fc form
Consider B1, for which the “Endocytosis, fold over IgG control” value in [1] stood at 2.6 fold. For the same molecule, the “Transcytosis, fold over IgG control” value in [1] is 1.53 fold. In addition, the “fold over mIgG control” value in experiment [2] was determined as 1.2 fold; in [3] it was 17.3 fold.

B2: anti-LRP-8 ML201-2B4.2B1.2H10 murine antibody (muFc) (antibody, V domains shown)
VH: DVKLVASGGGLVKPGGSLKLSCAASGFTLSRYAMSWVRQTPEKRLEWVAYIRNGGDYIYYADTVKGRFTISRDNARNTLYLQMSSLKSEDTAMYYCTREGSYYNFDYWGQGTTLTVSS
VL: DVLMTQTPLSLPVSLGDQASISCRSSQSIVHSNGNTYLEWYLQKPGQSPNLLIFKVSNRFSGVPDRFIGSGSGTDFTLKISRVEAEDLGVYYCFQGSHVPWTFGGGTKLEIK
notes: Mouse Fc form; also called ML201-2B4.2B1.2H10 muFc; CL-33867
As to B2, in experiment [1], the “Endocytosis, fold over IgG control” value turned out to be 1.8 fold and the “Transcytosis, fold over IgG control” value stood at 1.44 fold. The “fold over mIgG control” value in experiment [2] came out at 2.8 fold. Also, the “fold over mIgG control” value in experiment [3] is 14.2 fold.

B3: anti-LRP-8 ML201-8F3.3D7 murine antibody (muFc) (antibody, V domains shown)
VH: EVQLVESGGDLVKPGGSLKLSCAASRFTFSNFGMSWVRQTPDKRLEWVATISSGGRYTYYPDSVKGRFTISRDNAKNTLYLQMSSLRSEDTAMYYCARDYLYAMDYWGQGTSVTVSS
VL: DVVMTQTPLSLPVSLGDQASISCRSSQSLVYSNGNTYLHWYLQKPGQSPKVLMYKVSNRFSGVSDRFSGSGSGTDFTLKISRVEAEDLGVYFCSQSTHVPLTFGAGTKLELK
notes: Mouse Fc form; also called ML201-8F3-3D7 muFc; CL-33866
As to B3, in [1], the “Endocytosis, fold over IgG control” value was found to be 1.6 fold and the “Transcytosis, fold over IgG control” value was 1.08 fold. Moreover, the “fold over mIgG control” value in experiment [2] amounted to 5.2 fold. In experiment [3], the “fold over mIgG control” value is 13.6 fold.

B4: chimeric anti-LRP-8 ML201-8F3.3D7 antibody (antibody, V domains shown)
VH: EVQLVESGGDLVKPGGSLKLSCAASRFTFSNFGMSWVRQTPDKRLEWVATISSGGRYTYYPDSVKGRFTISRDNAKNTLYLQMSSLRSEDTAMYYCARDYLYAMDYWGQGTSVTVSS
VL: DVVMTQTPLSLPVSLGDQASISCRSSQSLVYSNGNTYLHWYLQKPGQSPKVLMYKVSNRFSGVSDRFSGSGSGTDFTLKISRVEAEDLGVYFCSQSTHVPLTFGAGTKLELK
notes: also called ML201.8F3.3D7 hFc; CL-33866
For the molecule B4, the EC50 – broadly, the concentration at which the effect is half-maximal – in experiment [4] came out at 0.16 nM.

B5: anti-LRP-8 BGK.2C8.E6.D3 [r/m IgG2a/K] (antibody, V domains shown)
VH: QVTLKESGPGILQPSQTLSLTCTFSGFSLNTYGMGVGWVRQPSGKGLEWLANIWWDDDKFYNPSLKNRLTVSKDTSNNQAFLRITNGDTADTATYFCARILGEDIGGALDAWGQGTSVTVSS
VL: DTVLTQSPALAVSPGERVSISCRASEGVNSYMHWYQQNPGQQSKLLIYRTSNLASGVPARFGGSGSGTDFTLTIDPVEADDTATYFCQQSWNDPPTFGGGTKLELK
B5: the EC50 in experiment [4] is 0.1 nM; in [5] it was 0.31 nM. Further, the “fold over isotype control” value in experiment [6] worked out at 5.16 fold; in experiment [7], 13.8 fold; in experiment [8], 13.7 fold.

B6: anti-LRP-8 BGK-2H4 chimeric antibody (CL-105945) (antibody, V domains shown)
VH: EVQLVESGGGLVQPGRSMKLSCAASGFTFSSFPMAWVRQAPTKGLEWVATVSTRGGHTYYRDSVKGRFTISRDNAKNTLYLQMNSLRSEDTATYYCIREGTSLFAYWGQGTLVTVSS
VL: DIQMTQSPPSLSASLGETVSIECLASEDISNYLAWYQQKPGKSPQLLIYYANSLEDGVPSRFSGSGSGTQYSLKISNMQPEDEGVYHCQQGYNYPYTFGAGTKLELK
Take B6: the EC50 amounted to 0.21 nM in experiment [4] and 1.08 nM in experiment [5].

B7: anti-LRP-8 BGK.5D10.E4 [r/m IgG2a/K] (antibody, V domains shown)
VH: QVQLRETGPDLVQPTQTLSLTCTVSGFSLTNYPVQWVRQPPGSGLEWLGIMWPSGAADFNPALKSRLSISRDTSKSQFFLRMDNLQTDDTAIYFCARGRGYSSPYAMDAWGQGTSVTVSS
VL: DIQMTQSPASLSASLGETVSIECLASEDIYNNLAWYQQKPGKSPHLLIHFTSNLQDGVPSRFSGSGSGTQYSLKINSLESEDGATYFCLQDSEYPLTFGSGTKLEIK
notes: Rat variable domains on mouse IgG2a/kappa
As for B7, the concentration giving a half-maximal response (EC50) was determined as 0.24 nM in experiment [4] and 0.77 nM in experiment [5]. The “fold over isotype control” value is 5.85 fold in experiment [6], 30.2 fold in experiment [7] and 28.2 fold in [8].

B8: anti-LRP-8 BGK.6E3.F4 [r/m IgG2a/K] (antibody, V domains shown)
VH: EVQLVESGGGLVQPGKSLKLSCAASGFTFSDYNMAWVRQAPKKGLEWVATIMYDGSRTFYRDSVKGRYTFSRDNAKSTLYLQMDSLRSEDTATYYCATGRNWFAYWGQGTLVTVSS
VL: DIIMTQSPSSLAVSAGETVTINCKSSQSLLSSGKQKNYLAWYQQKPGQSPKLLIYLASTRESGVPDRFIGSGSGTDFTLTISSMQAEDLAIYYCQQHYDTPLTFGSGTKLEIK
notes: as for B7
B8: the EC50 in experiment [4] turned out to be 0.11 nM; in experiment [5], 0.25 nM. Besides, the “fold over isotype control” value in experiment [6] is 0.41 fold; in [7], 1.02 fold; in [8], 0.87 fold.

B9: anti-LRP-8 BGK-9D10-2 antibody (CL-105967) (antibody, V domains shown)
VH: EVQLVESGGGLVQSGRSLKLSCAASGFTFSNYYMAWVRQAPKKGLEWVATITTSGSRSFYPDSVKGRFTISRDNAKSSLYLQINSLKSEDTATYYCARRGPLGYFDHWGRGVMVTVSS
VL: DIQMTQSPPSLPASLGDKVTITCQASQNINKYIAWYQQKPGKAPRLLIRFTSTLESDTPSRFSGSGSGRDYSFSISNVESEDFASYYCLHYDNLPPWTFGGGTKLELK
notes: also called BGT-9D10-2
Take B9: the EC50 in experiment [4] is 2.29 nM; in [5], 0.64 nM; in experiment [9], 0.108 µg/mL and 0.54 nM; in experiment [10], 0.12 µg/mL and 0.6 nM.

B10: anti-LRP-8 BGK-7A11 chimeric antibody (CL-105959) (antibody, V domains shown)
VH: QVTLKESGPGILQPSQTLSLTCTFSGFSLSTYGMGVGWIRQPAGTGLEWLANIWWDDDKYYNPSLKNRLTISKDTSNNQVFLKITNVDTADTATYYCARTTKPYYFDYWGQGVMVTVSS
VL: HFVLAQPNSVSTNLGSTVKLSCKRSTGNSGSNYVNWYQQYEGRSPTTMIYRDDKRPDGVPDRFSGSIDRSSNSALLTINNVQTEDEADYFCQSYSSGINIFGGGTKLTVL
B10: the results for the EC50 in experiment [4] and in experiment [5] were 0.12 nM and 0.53 nM, respectively.

B11: anti-LRP-8 BGK-7F7 chimeric antibody (CL-105960) (antibody, V domains shown)
VH: QVTLKESGPGILQPSQTLSLTCTFSGFSLSTYGLGVGWIRQPSGKGLEWLANIWWDDAKYYNPSLKNRLTISKDTSNNQAFLKIPNVDTADTARYYCARTTKPYYFDYWGQGVMVTVSS
VL: HFVLAQPNSVSTNLGSTVKLSCKRSTANIGSNYVNWYQQHEGRSPTTLIYRDDRRPDGVPDRFSGSIDRSSNSALLTINNVQTEDEADYFCQSYSSGINIFGGGTKLTVL
For the molecule B11, the figures for the EC50 in experiment [4] and in [5] were 0.11 nM and 0.35 nM, respectively.

B12: anti-LRP-8 BGK-6B5-2 chimeric antibody (CL-105969) (antibody, V domains shown)
VH: QVSLQESGPGILQPSQTLSLTCTFSGFSLSTFGMGVGWIRQPSGKGLEWLANIWWDDDKYYNPSLKNRLTISKDTSNNQAFLKITNVDTADTATYYCARTAKPYYFDYWGHGVMVTVSS
VL: HFVLAQPNSVSTNLGNTVKLSCKRSTGNIGSNYVNWYQQHEGRSPTTLIYRDDKRPDGVPDRFSGSFDRSSNSALLTINNVQTEDEADYFCQSYNSGINFFGGGTKLTVL
B12: the EC50 turned out to be 0.15 nM in experiment [4] and 0.51 nM in experiment [5].
